From patent US20220112288A1 (published 2022)
Numbering of substitutions follows the chain as printed.

B1: 75110_05A11A (antibody, V domains shown)
VH: EVQLVESGGGLVKPGGSLTLSCAASGFTFSNTWMSWVRQAPGKGLEWVGRIKSKIDGGTTDYAAPVKGRFTISRDDSKNTLYLQMNSLKTEDTAVYYCTTSGTYSSGWGLFDYWGQGTLVTVSS
VL: DIQMTQSPSSLSASVGDRVTITCQASQDISNYLNWYQQKPGKAPKLLIYDTSNLEAGVPSRFSGSGSGTHFTLTISSLQPEDIATYYCQQYDNLPFTFGGGTRVEIK
notes: Non-clonal AlivaMab Mouse Kappa hybridoma supernatant, captured by anti-mouse IgG Fc (human V regions, mouse Fc)
B2: 75110_05E13A (antibody, V domains shown)
VH: EVQLVESGGDLVKPGGSLRLSCAASGFSFSNAWMSWVRQAPGKGLEWVGRVESKTDGGTTDYAAPVKDRFTISRDDSKYTLYLQMNSLKTEDSAVYYCTIGGGFGLELYGFFDYWGQGTLVTVSS
VL: DIQMTQSPSTLSASVGDRVTITCRASQSISSWLAWYQQKPGKAPMLLIYKASSLESGVPSRFSGSGSGTEFTLTISSLQPDDFATYYCLQYNSYYTFGQGTKLEIK
notes: as for B1
B3: 75110_07J24A (antibody, V domains shown)
VH: QAQLQESGPGLVKPSETLSLTCTVSGGSISSYYYNWIRQPAGKGLEWIGRIYTSGRTDYNPSLKSRVTMSADTSKNQFSLKLSSVTAADTAVYYCARDEGPTDAFDIWGQGTMVTVSS
VL: DIVMTQTPLSLPVTPGEPASISCRSSQSLLDSDDGNTYLDWYLQKPGQSPHLLIYTLSYRASGVPDRFSGSGSGSDFTLKISRVEAEDVGVYYCMQRIEFPFTFGPGTKVDIK
notes: as for B1
B4: 75110_08A13A (antibody, V domains shown)
VH: EVQLVESGGGLVQPGGSLRLSCAASGFIFSSYWMSWVRQAPGKGLEWVANIKQDGSEKYYMDSVKGRFTISRDNAKNSLYLQMNSLRAEDTAVYYCARDNSYYYYGMDVWGQGTTVTVSS
VL: AIQMTQSPSSLSASVGDRVTITCRASQGIRDDLGWYQQKPGKAPKLLIFAASSLQSGVPSSFSGSGSGTDFTLTISSLQPEDFATYYCLHHYNYPYTFGQGTKLEIK
notes: as for B1
B5: 75110_01C18A (antibody, V domains shown)
VH: EVQLVESGGGLIQPGGSLRLSCAASGFTVSSNYMNWVRQAPGKGLEWVSVIYAGDNTYSADSVKGRFTISRDNSNNTLCLQMNSLRAEDTAVYYCAREGGTTGAFDIWGQGTMVTVSS
VL: DIQMTQSPSSVSASVGDRVTITCRASQGINSWLAWYQQKPGKAPKLLIYAASSLQSGVPSRFSGSGSGTDFTLTISSLQPEDFATYYCQQGNSFPYTFGQGTKLEIK
notes: as for B1
B6: 75110_02E22A (antibody, V domains shown)
VH: QVQLQESGPGLVKPSETLSLTCTVSGGSISSFYWSWIRQPAGKGLEWIGRIYTSGSTNYNPSLKSRVTMSVDTSKNQFSLKLSSVTAADTAVYYCARELEKRNYYGMDVWGQGTTVTVSS
VL: DIQMTQSPSSLSASVGDRVTITCQASHDISNYLNWYQQKPGKAPKLLIFDASTLETGVPSRFSGSGSGTYFTFTIRSLQPEDIATYYCQQYDSLPLTFGGGTKVEIK
notes: as for B1
B7: 75110_02K11A (antibody, V domains shown)
VH: QVQLQESGPGLVKPSQTLSLTCTVSGGSISSGFYYWTWIRQHPGKGLEWIGYISYSGNTYYNPSFKSRLTISVDTSKSQFSLKLSSVTAADTAVYYCARDRPSNFDAFDIWGQGTMVTVSS
VL: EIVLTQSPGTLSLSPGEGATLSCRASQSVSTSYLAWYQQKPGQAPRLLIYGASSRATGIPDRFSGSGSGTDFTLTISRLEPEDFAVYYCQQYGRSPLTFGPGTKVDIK
notes: as for B1
B8: 75110_03I23A (antibody, V domains shown)
VH: QVQLQESGPGLVKPSETLSLTCTASGGSITSYYWNWIRQPAGKGLEWIGRIYTSGSTNYNPSLKSRVTMSVDTSKNQFSLKLSSVTAADTAVYYCARDPGYSDAFNIWGQGTMVTVSS
VL: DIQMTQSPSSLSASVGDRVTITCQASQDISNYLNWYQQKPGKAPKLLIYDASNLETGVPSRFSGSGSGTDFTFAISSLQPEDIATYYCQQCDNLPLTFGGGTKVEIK
notes: as for B1
B9: 75110_07N04A (antibody, V domains shown)
VH: B8 VH with T23S, A24V, G27V, I29S, Y32F, N35S, E46D, N106A
VL: not shown
notes: as for B1
B10: 75110_04D20A (antibody, V domains shown)
VH: B6 VH with G26N, S31D, F32Y, V67I, K81E, K101R, R102Y, N103Y, Y104F, M107V
VL: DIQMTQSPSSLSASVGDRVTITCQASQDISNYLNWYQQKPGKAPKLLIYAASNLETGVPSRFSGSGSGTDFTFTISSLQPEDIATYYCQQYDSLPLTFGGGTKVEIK
notes: as for B1
B11: 75110_06K03A (antibody, V domains shown)
VH: B6 VH with S31T, F32Y, Y52N, N58T, K101R, R102Y, N103Y
VL: B6 VL with H27Q, F49Y, D50Y, T53I, Y70D, R76S
notes: as for B1
B12: 75110_04H17A (antibody, V domains shown)
VH: QVQLQESGPGLVKPSETLSLTCTVSGGSISTYYWSWIRQSAGKGLEWIGRIYTSERPNYNPSLKSRVTMSVDTSKNQFSLKLNSVSAADTAVYYCARELERPYYYGMDVWGQGTTVTVSS
VL: B6 VL with I2V, D17G, H27Q, F49Y, D50Y, T53N, Y70D, R76S, I83F, S93N
notes: as for B1
B13: 75110_05E05A (antibody, V domains shown)
VH: QVQLQESGPGLVKPSETLSLTCTVSGGSIGSYYWSWIRQPAGKGLEWIGRIYTSGSTNYNPSLKSRVTMSFDTSKNQFSLKLNSVTAADTAVYYCATDGGVGDSLDYWGQGTLVTVSS
VL: B3 VL with H51Q, S75T, R97H
notes: as for B1
B14: 75110_05G15A (antibody, V domains shown)
VH: QVQLQESGPGLVKPSQTLSLTCTVSGGSISSGGYFWSWIRQHPGKGLEWIGCIYYSGSTYYIPSLKSRVTISVDTSKNQFSLKLRSVTAADTAVYYCARDGYDYWYFDLWGRGTLVTVSS
VL: not shown
B15: 75110_06C16A (antibody, V domains shown)
VH: QVQLQESGPGLVTPSETLSLSCTVSGGSISDYYWSWIRQPGGKGLEWIGRIYSSGSTNYNPSLKSRVTMSVDTSKNQFSLKLSSVTAADTAVYFCARDREDYYYYGMDVWGQGTTVTVSS
VL: B6 VL with F49Y, D50A, T53N, Y70D, T72S, R76S, S93H
notes: as for B1
B16: 75110_08D24A (antibody, V domains shown)
VH: B6 VH with S31G, G55E, S56N, E98D, L99R, K101G, R102Y, N103Y
VL: B1 VL with D50A, T51A, A56T, H70D, L73F, N93S, F96I, G100Q, V104L
notes: as for B1
B17: 75110_06E14A (antibody, V domains shown)
VH: B15 VH with T13K, S21T, D31N, Y33F, G41A, S56N, F94Y
VL: DIQMTQSPSSLSASVGDRVTITCQASQDISNYLNWYQQKPGKAPKLLIYGASILETGVPSRFTGSGSGTDFTFTISSLQPEDIATYYCQQYDSLPITFGQGTRLEIK
notes: as for B1

Key:
[1] = target: T1, Recombinant human CD4 (R&D Systems, Cat. 10327-CD) (human, UniProt P01730 26-390, limits assumed); test: BLI (Octet Red384), non-clonal supernatant on AMC sensor, 100 nM human CD4
T1 construct: Bought soluble recombinant protein used as analyte at 100 nM; also called huCD4

[2] = target: T1, Recombinant human CD4 (R&D Systems, …); test: BLI (Octet Red384), non-clonal supernatant on AMC sensor, 100 nM human CD4, 1:1 local fit;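 note: hybridoma antibodies captured from supernatant, single CD4 concentration as analyte, association and dissociation phases fitted together, giving single-point kinetic estimates per supernatant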

| Binder | Response [1] | Kd [2] | koff [2] | kon [2] |
| --- | --- | --- | --- | --- |
| B1 | 0.15 | 3.2 nM | 0.00055 s⁻¹ | 170000 M⁻¹ s⁻¹ |
| B2 | 0.33 | 7.4 nM | 0.0012 s⁻¹ | 160000 M⁻¹ s⁻¹ |
| B3 | 0.14 | < 0.001 nM | < 1e-07 s⁻¹ | 77000 M⁻¹ s⁻¹ |
| B4 | 0.35 | 4.4 nM | 0.001 s⁻¹ | 230000 M⁻¹ s⁻¹ |
| B5 | 0.25 | 16 nM | 0.0013 s⁻¹ | 86000 M⁻¹ s⁻¹ |
| B6 | 0.18 | 20 nM | 0.0042 s⁻¹ | 210000 M⁻¹ s⁻¹ |
| B7 | 0.14 | 17 nM | 0.0022 s⁻¹ | 130000 M⁻¹ s⁻¹ |
| B8 | 0.18 | 8.6 nM | 0.0012 s⁻¹ | 140000 M⁻¹ s⁻¹ |
| B9 | 0.1 | < 0.001 nM | < 1e-07 s⁻¹ | 140000 M⁻¹ s⁻¹ |
| B10 | 0.2 | 0.88 nM | 0.00013 s⁻¹ | 150000 M⁻¹ s⁻¹ |
| B11 | 0.14 | 6.8 nM | 0.0019 s⁻¹ | 280000 M⁻¹ s⁻¹ |
| B12 | 0.16 | 9 nM | 0.00097 s⁻¹ | 110000 M⁻¹ s⁻¹ |
| B13 | 0.24 | 0.95 nM | 0.00013 s⁻¹ | 140000 M⁻¹ s⁻¹ |
| B14 | 0.24 | < 0.001 nM | < 1e-07 s⁻¹ | 78000 M⁻¹ s⁻¹ |
| B15 | 0.07 | 9.7 nM | 0.0024 s⁻¹ | 250000 M⁻¹ s⁻¹ |
| B16 | 0.21 | 34 nM | 0.006 s⁻¹ | 170000 M⁻¹ s⁻¹ |
| B17 | 0.12 | 12 nM | 0.002 s⁻¹ | 170000 M⁻¹ s⁻¹ |
